The text below walks through data of article doi:10.1101/2024.09.29.615664.

The target of this assay is reconstituted mononucleosome with unmodified H3K56 (UniProt P68431). Nature of the assay: pull-down.

“MutSβ (MSH2-MSH3 complex), purified (from UniProt P43246;P20585)”: the fold of MSH3 pulled down against the H3K56ac-nucleosome stood at 4 fold.
